# Data from publication PMC3601782.
# Biological target: Sox2 (UniProt P48431)
# Assay: co-IP Flag-Oct4 variants, endogenous Sox2
# Conditions: reference: Flag-Oct4 wild type; sites T235
substance,measurement,value
Oct4 (from UniProt Q01860) Flag-Oct4-T235A,binding against the reference,weaker
